Test results taken from publication PMC4552939, “Structural Analysis of the Regulatory Domain of ExsA, a Key Transcriptional Regulator of the Type Three Secretion System in Pseudomonas aeruginosa” (PLoS ONE, 2015).

B1: ExsA amino-terminal domain (ExsA-NTD), amino acids 2-178 (domain or fragment)
chain: QGAKSLGRKQITSCHWNIPTFEYRVNKEEGVYVLLEGELTVQDIDSTFCLAPGELLFVRRGSYVVSTKGKDSRILWIPLSAQFLQGFVQRFGALLSEVERCDEPVPGIIAFAATPLLAGCVKGLKELLVHEHPPMLACLKIEELLMLFAFSPQGPLLMSVLRQLSNRHVERLQLFME
notes: thermolysin product, amino acids 2-178 by LC-MS; A selenomethionine-substituted sample was also made (E. coli BL21(DE3), minimal medium), crystallised under identical conditions and used for phasing; Residues 2-10 and 166-178 (chain A) and 2-9 and 167-178 (chain B) gave no density; also called regulatory domain of ExsA; ExsA N-terminal domain protein; source: E. coli BL21(DE3) CodonPlus RIL, …

Assays:
[1] = target: ExsA-L117R (Pseudomonas aeruginosa) (UniProt P26993)
[2] = target: the molecule itself; test: crystal structure; hanging-drop vapor diffusion at 25°C; 1.6M MgSO4, 0.1M MES pH 6.5, 0.1M EGTA; dimers A/A' and B/B'' made by crystallographic two-fold axes

| Molecule | activation of transcription in vitro at 16, 32 and 64 nM protein, against wild-type ExsA [1] | binding result [2] |
| --- | --- | --- |
| ExsA-L117R (from UniProt P26993 1-278) (natural protein) | 10 fold | – |
| B1 | – | binds |
